Reference: paper PMC11658451, “The human Dicer helicase domain is capable of ATP hydrolysis and single-stranded nucleic acid binding” (BMC Biology, 2024)

Tests used:
HEL = biological target: T1, HEL (Homo sapiens, UniProt Q9UPY3); assay: ATP hydrolysis, PAGE of released […]; assay type: biochemical; details: labelled compound ([γ-32P]-ATP, 2 nM), HEL 2 nM (low turnover); 150 mM NaCl, 50 mM Tris-HCl pH 7.5, 2.5 mM MgCl2, 37 °C
T1 construct: gene DICER1; isolated helicase domain, residues 1-624, N-terminal His6 tag (pMCSG7), expressed in E. coli BL21Star, Ni-Sepharose purified
T1 sequence (Q9UPY3 1-624): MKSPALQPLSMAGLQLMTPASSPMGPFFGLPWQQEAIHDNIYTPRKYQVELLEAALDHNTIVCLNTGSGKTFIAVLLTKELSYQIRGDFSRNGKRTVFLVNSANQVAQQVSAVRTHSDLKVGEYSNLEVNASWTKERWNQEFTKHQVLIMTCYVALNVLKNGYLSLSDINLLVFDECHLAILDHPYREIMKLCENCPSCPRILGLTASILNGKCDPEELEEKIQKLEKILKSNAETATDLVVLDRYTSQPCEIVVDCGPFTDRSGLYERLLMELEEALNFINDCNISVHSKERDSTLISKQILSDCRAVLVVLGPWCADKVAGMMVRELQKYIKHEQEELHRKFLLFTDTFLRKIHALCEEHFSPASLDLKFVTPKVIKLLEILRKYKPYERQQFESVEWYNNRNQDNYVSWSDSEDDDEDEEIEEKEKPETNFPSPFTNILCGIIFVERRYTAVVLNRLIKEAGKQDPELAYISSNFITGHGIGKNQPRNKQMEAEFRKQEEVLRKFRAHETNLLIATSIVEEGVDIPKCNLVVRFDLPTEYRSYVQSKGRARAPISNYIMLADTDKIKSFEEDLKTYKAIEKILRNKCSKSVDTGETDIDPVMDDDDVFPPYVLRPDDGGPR

WT hDicer [1] = biological target: T2, WT hDicer (Homo sapiens, UniProt Q9UPY3); assay: EMSA with radiolabelled ATP; assay type: binding
T2 construct: gene DICER1; full-length, 1922 aa, ~220 kDa; expressed in human 293T NoDice cells and purified; K70A variant from Addgene plasmid 41589

WT hDicer [2] = biological target: T3, WT hDicer (Homo sapiens, UniProt Q9UPY3, K70A); assay: EMSA with radiolabelled ATP; details: labelled compound ([γ-32P]-ATP, 2 nM); 150 mM NaCl, 50 mM Tris-HCl pH 7.5, 2.5 mM MgCl2, 4 °C, no RNA; Walker A mutant; weak binding, Kd could not be determined
T3 construct: gene DICER1; full-length, 1922 aa, ~220 kDa; expressed in human 293T NoDice cells and purified; K70A variant from Addgene plasmid 41589

[3] = biological target: T4, HEL (hDicer helicase domain) (Homo sapiens, UniProt Q9UPY3 1-624); assay: EMSA; up to 95 uM HEL; 50 mM Tris-HCl pH 7.5, 150 mM NaCl; EMSA 15 min at room temperature (also 4 and 37 C), 5% native PAA gel in 1x TBE at 4 C; BLI 23 C; details: protein: recombinant, tags: N-terminal His6 (pMCSG7)
T4 sequence: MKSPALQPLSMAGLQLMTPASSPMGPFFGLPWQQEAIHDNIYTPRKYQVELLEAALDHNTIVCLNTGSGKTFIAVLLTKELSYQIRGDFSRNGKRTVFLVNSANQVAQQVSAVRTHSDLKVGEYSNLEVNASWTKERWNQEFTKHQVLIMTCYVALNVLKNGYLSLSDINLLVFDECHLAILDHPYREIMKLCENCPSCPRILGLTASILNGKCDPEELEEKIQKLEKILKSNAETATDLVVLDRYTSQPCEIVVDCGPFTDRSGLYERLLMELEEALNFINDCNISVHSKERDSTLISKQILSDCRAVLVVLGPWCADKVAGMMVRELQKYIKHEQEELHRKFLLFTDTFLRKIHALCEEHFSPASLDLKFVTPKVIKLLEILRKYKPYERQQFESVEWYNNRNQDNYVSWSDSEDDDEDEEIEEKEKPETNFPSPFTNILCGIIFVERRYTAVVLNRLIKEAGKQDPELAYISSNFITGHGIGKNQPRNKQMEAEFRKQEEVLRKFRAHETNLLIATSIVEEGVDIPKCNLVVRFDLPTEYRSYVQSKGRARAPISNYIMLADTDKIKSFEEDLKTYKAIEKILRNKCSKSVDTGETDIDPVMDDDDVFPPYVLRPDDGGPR

[4] = biological target: T4, HEL (hDicer helicase domain); assay: BLI; 23 C, HEL immobilized; 50 mM Tris-HCl pH 7.5, 150 mM NaCl; EMSA 15 min at room temperature (also 4 and 37 C), 5% native PAA gel in 1x TBE at 4 C; BLI 23 C; details: protein: recombinant; tags: N-terminal His6 (pMCSG7); label: 5' 32P (EMSA); none (BLI)
[5] = biological target: T4, HEL (hDicer helicase domain); assay: EMSA; 37 C; 50 mM Tris-HCl pH 7.5, 150 mM NaCl; EMSA 15 min at room temperature (also 4 and 37 C), 5% native PAA gel in 1x TBE at 4 C; BLI 23 C; details: protein: recombinant; tags: N-terminal His6 (pMCSG7); label: 5' 32P; unstructured
[6] = biological target: T4, HEL (hDicer helicase domain); assay: EMSA; 50 mM Tris-HCl pH 7.5, 150 mM NaCl; EMSA 15 min at room temperature (also 4 and 37 C), 5% native PAA gel in 1x TBE at 4 C; BLI 23 C; details: protein: recombinant; tags: N-terminal His6 (pMCSG7); label: 5' 32P (EMSA); none (BLI)
[7] = biological target: T4, HEL (hDicer helicase domain); assay: EMSA; room temperature; 50 mM Tris-HCl pH 7.5, 150 mM NaCl; EMSA 15 min at room temperature (also 4 and 37 C), 5% native PAA gel in 1x TBE at 4 C; BLI 23 C; details: protein: recombinant; tags: N-terminal His6 (pMCSG7); label: 5' 32P; unstructured
[8] = biological target: T4, HEL (hDicer helicase domain); assay: CD thermal melting; HEL transitions shift to 52 and 74 C; RNA transition 75 to 60 C; 50 mM Tris-HCl pH 7.5, 150 mM NaCl; EMSA 15 min at room temperature (also 4 and 37 C), 5% native PAA gel in 1x TBE at 4 C; BLI 23 C; details: protein: recombinant; tags: N-terminal His6 (pMCSG7); label: 5' 32P (EMSA); none (BLI); partly self-paired (predicted)
[9] = biological target: T4, HEL (hDicer helicase domain); assay: SAXS; 1:1 complex; 50 mM Tris-HCl pH 7.5, 150 mM NaCl; EMSA 15 min at room temperature (also 4 and 37 C), 5% native PAA gel in 1x TBE at 4 C; BLI 23 C; details: protein: recombinant, tags: N-terminal His6 (pMCSG7), label: 5' 32P (EMSA), hairpin
[10] = biological target: T4, HEL (hDicer helicase domain); assay: EMSA; distinct complex; 50 mM Tris-HCl pH 7.5, 150 mM NaCl; EMSA 15 min at room temperature (also 4 and 37 C), 5% native PAA gel in 1x TBE at 4 C; BLI 23 C; details: protein: recombinant; tags: N-terminal His6 (pMCSG7); label: 5' 32P (EMSA); none (BLI)
[11] = label: 5' 32P on one strand, blunt
[12] = label: 5' 32P on one strand, 3' overhang 2 nt on each end

T3 sequence (Q9UPY3 whole entry K70A): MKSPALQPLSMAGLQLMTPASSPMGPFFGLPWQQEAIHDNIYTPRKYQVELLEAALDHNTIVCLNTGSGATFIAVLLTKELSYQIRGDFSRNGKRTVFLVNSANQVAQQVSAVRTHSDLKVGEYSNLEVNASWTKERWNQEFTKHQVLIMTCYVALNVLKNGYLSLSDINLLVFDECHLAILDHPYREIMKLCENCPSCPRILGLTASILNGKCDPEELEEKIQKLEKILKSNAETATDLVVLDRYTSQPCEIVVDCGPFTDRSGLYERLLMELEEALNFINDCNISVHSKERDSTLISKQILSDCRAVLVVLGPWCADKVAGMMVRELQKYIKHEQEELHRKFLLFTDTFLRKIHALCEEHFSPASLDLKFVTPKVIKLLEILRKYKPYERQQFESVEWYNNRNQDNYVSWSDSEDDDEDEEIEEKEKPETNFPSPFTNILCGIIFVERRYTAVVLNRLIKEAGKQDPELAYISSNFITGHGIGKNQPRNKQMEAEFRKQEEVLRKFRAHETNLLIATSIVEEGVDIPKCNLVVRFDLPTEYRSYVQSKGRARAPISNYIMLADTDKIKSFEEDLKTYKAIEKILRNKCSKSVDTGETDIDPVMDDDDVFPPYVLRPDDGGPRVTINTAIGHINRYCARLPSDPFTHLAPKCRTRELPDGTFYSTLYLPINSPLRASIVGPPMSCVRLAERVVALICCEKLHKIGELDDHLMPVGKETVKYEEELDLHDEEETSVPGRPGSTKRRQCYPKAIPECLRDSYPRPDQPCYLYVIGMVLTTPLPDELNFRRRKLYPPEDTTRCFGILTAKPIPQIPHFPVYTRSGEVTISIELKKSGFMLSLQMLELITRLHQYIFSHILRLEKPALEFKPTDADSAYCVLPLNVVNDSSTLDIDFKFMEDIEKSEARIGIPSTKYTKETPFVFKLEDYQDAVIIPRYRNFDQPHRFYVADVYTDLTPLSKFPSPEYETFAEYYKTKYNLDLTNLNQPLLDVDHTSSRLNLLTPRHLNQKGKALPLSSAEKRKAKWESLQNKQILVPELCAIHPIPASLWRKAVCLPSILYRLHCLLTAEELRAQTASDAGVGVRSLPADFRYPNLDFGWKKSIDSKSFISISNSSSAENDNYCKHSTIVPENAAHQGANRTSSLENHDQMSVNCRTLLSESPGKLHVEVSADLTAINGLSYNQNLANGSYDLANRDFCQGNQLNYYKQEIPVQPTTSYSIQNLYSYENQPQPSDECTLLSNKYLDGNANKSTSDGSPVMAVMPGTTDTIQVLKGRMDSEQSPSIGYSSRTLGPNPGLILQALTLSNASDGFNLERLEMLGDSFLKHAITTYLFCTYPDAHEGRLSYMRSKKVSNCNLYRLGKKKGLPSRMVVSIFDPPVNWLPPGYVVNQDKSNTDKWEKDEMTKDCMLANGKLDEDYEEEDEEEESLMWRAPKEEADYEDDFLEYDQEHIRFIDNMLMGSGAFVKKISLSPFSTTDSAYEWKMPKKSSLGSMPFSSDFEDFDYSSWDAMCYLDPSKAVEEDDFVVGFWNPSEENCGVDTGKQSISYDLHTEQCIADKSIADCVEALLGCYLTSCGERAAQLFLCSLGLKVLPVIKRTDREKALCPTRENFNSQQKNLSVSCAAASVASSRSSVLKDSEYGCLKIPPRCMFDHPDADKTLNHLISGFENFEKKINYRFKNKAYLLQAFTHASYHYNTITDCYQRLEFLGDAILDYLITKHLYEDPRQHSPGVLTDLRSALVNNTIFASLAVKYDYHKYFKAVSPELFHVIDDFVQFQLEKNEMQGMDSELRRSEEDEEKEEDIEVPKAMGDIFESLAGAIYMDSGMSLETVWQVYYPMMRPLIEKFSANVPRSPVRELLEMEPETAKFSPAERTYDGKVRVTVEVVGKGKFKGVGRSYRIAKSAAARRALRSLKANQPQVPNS

Nc1ncnc2c1ncn2[C@@H]1O[C@H](COP(=O)(O)OP(=O)(O)OP(=O)(O)O)[C@@H](O)[C@H]1O [ATP]
ATP hydrolysis, PAGE of released 32Pi (HEL): ATP was hydrolyzed in reactions carried out with HEL (Fig. 2a) and WT hDicer
Kd (WT hDicer [1]): ~0.085 µM
EMSA with radiolabelled ATP (WT hDicer [2]): only weak ATP binding could be observed for hDicer_K70A

B1: dsRNA_blunt (dsRNA)
RNA 1: GUGCAUUGUAGUUGCAUUGCAUGUUCUGGUCA
RNA 2: UGACCAGAACAUGCAAUGCAACUACAAUGCAC
binding result [3, 11]: no binding

B2: dsRNA_over (dsRNA)
RNA 1: GUGCAUUGUAGUUGCAUUGCAUGUUCUGGUCA
RNA 2: ACCAGAACAUGCAAUGCAACUACAAUGCACAU
binding result [3, 12]: no binding

GAAUCUUAACGC (ssRNA) [R12]
binding result ([3]; label: 5' 32P): no binding

B3: R56 (ssRNA)
RNA: GGGAGAAUCAUAAGUAGCGCAGUGAGUCGUUGUGCUGCCCAUGUUAACAGUUAGCC
Kd [4]: ~23 µM

CUCUCUCUCUCUCUCUCUCUCUCUCUCUCUCUCUCUCUCUCU (ssRNA) [(CU)21]
binding result [5]: binds

GAATCTTAACGC (ssDNA) [D12]
binding result ([3]; label: 5' 32P): no binding

GGGAGAATCATAAGTAGCCTCCCCCCATGTTAACAGTTAGCC (ssDNA) [D42]
Kd [4]: ~22 µM
Kd [6]: ~8.5 µM

ACACACACACACACACACACACACACACACACACACACACAC (ssRNA) [(AC)21]
binding result [7]: binds

GGGAGAAUCAUAAGUAGCCUCCCCCCAUGUUAACAGUUAGCC (ssRNA) [R42]
binding result [8]: binds

B4: pre-mir-21 (structured_RNA)
RNA: AGCUUAUCAGACUGAUGUUGACUGUUGAAUCUCAUGGCAACACCAGUCGAUGGGCUGU
binding result [9]: binds

B5: pre-mir-16-1 (structured_RNA)
RNA: UAGCAGCACGUAAAUAUUGGCGUUAAGAUUCUAAAAUUAUCUCCAGUAUUAACUGUGCUGCUGAA
binding result ([9]; 9-nt apical loop): binds

GTGCATTGTAGTTGCATTGCATGTTCTGGTCA (ssDNA) [D32]
binding result [10]: binds

B6: dsDNA_blunt (dsDNA)
DNA 1: GTGCATTGTAGTTGCATTGCATGTTCTGGTCA
DNA 2: TGACCAGAACATGCAATGCAACTACAATGCAC
binding result [3, 11]: no binding

B7: dsDNA_over (dsDNA)
DNA 1: GTGCATTGTAGTTGCATTGCATGTTCTGGTCA
DNA 2: ACCAGAACATGCAATGCAACTACAATGCACAT
binding result [3, 12]: no binding

B8: D56 (ssDNA)
DNA: GGGAGAATCATAAGTAGCGCAGTGAGTCGTTGTGCTGCCCATGTTAACAGTTAGCC
Kd [4]: ~21 µM
Kd [6]: ~7.4 µM
